Results: patent publication US9074018B2, “Reconstituted pulmonary surfactants” (CHIESI FARMACEUTICI S.p.A, priority 2012, dated 2015)

Experiment: Viscosity of the surfactant preparation
Assay type: physicochemical
Settings: mixed with a phospholipid mixture consisting of DPPC:POPG 7:3 (w/w)
Excerpt: Advantageously the viscosity of said formulations is less than 20 centiPoise (cP), preferably less than 15 cP, upon determination with a common viscometer available on the market according to methods known in the art.

## CWLCRALIKRFNRYLTPQLVCRLVLRC [ox Mini-B27, SP-B analogue of formula (III), shorter analogue of ox Mini-B(Leu)]
  viscosity of the preparation: viscous
